# In the supplement of paper PMC10567573:
# B1: MATN2 (parent)
# chain: TDDSYSCHCLKGFTLNPDKKTCRR
# Variants of: B1
# Test: protein stability index of a GFP-peptide fusion (GPS, HEK-293T) (PSI 1-6); higher = more stable
# Conditions: c terminus: a fixed tail appended
# 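Also: lentivirally expressed fusions sorted by FACS into six bins by GFP to DsRed ratio, PSI derived from sequencing read proportions per bin multiplied by bin number.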
row,Variant,protein stability index
1,TDDSYSCHCLKQFTLNPDKKTCRR,2.85
2,TDDSYSCHCLKKFTLNPDKKTCRR,2.41
3,TDDSYSCHCLKRFTLNPDKKTCRR,2.08
4,TDDSYSCHCLKDFTLNPDKKTCRR,2.19
5,TDDSYSCHCLKPFTLNPDKKTCRR,2.63
6,TDDSYSCHCLKFFTLNPDKKTCRR,1.98
7,TDDSYSCHCLKYFTLNPDKKTCRR,1.73
8,TDDSYSCHCLKNFTLNPDKKTCRR,2.24
9,TDDSYSCHCLKSFTLNPDKKTCRR,2.1
10,TDDSYSCHCLKMFTLNPDKKTCRR,1.9
11,TDDSYSCHCLKIFTLNPDKKTCRR,1.78
12,TDDSYSCHCLKAFTLNPDKKTCRR,2.45
13,TDDSYSCHCLKCFTLNPDKKTCRR,2.54
14,TDDSYSCHCLKEFTLNPDKKTCRR,2.27
15,TDDSYSCHCLKVFTLNPDKKTCRR,1.79
16,TDDSYSCHCLKHFTLNPDKKTCRR,2.91
17,TDDSYSCHCLKLFTLNPDKKTCRR,2.45
18,TDDSYSCHCLKTFTLNPDKKTCRR,2.39
19,TDDSYSCHCLKWFTLNPDKKTCRR,2.01
20,TDDSYSCHCLKGNTLNPDKKTCRR,1.81
21,TDDSYSCHCLKGPTLNPDKKTCRR,2.74
22,TDDSYSCHCLKGTTLNPDKKTCRR,2.3
23,TDDSYSCHCLKGVTLNPDKKTCRR,2.21
24,TDDSYSCHCLKGMTLNPDKKTCRR,2.71

row,Variant,protein stability index
1,TDDSYSCHCLKGDTLNPDKKTCRR,2.27
2,TDDSYSCHCLKGETLNPDKKTCRR,2.45
3,TDDSYSCHCLKGGTLNPDKKTCRR,2.88
4,TDDSYSCHCLKGATLNPDKKTCRR,2.88
5,TDDSYSCHCLKGRTLNPDKKTCRR,2.14
6,TDDSYSCHCLKGQTLNPDKKTCRR,2.02
7,TDDSYSCHCLKGLTLNPDKKTCRR,2.77
8,TDDSYSCHCLKGITLNPDKKTCRR,2.05
9,TDDSYSCHCLKGYTLNPDKKTCRR,3.04
10,TDDSYSCHCLKGWTLNPDKKTCRR,2.44
11,TDDSYSCHCLKGCTLNPDKKTCRR,2.39
12,TDDSYSCHCLKGKTLNPDKKTCRR,2.55
13,TDDSYSCHCLKGHTLNPDKKTCRR,1.98
14,TDDSYSCHCLKGSTLNPDKKTCRR,2.21
15,TDDSYSCHYLKGFTLNPDKKTCRR,3.88
16,TDDSYSCHCLKGFTLNEDKKTCRR,2.77
17,TDDSYSCHCLKGFTLNDDKKTCRR,2.65
18,TDDSYSCHCLKGFTLNADKKTCRR,2.25
19,TDDSYSCHCLKGFTLNKDKKTCRR,2.63
20,TDDSYSCHCLKGFTLNGDKKTCRR,2.57
21,TDDSYSCHCLKGFTLNVDKKTCRR,2.92
22,TDDSYSCHCLKGFTLNFDKKTCRR,2.3
23,TDDSYSCHCLKGFTLNYDKKTCRR,2.26
24,TDDSYSCHCLKGFTLNQDKKTCRR,2.14

row,Variant,protein stability index
1,TDDSYSCHCLKGFTLNSDKKTCRR,2.11
2,TDDSYSCHCLKGFTLNRDKKTCRR,2.35
3,TDDSYSCHCLKGFTLNNDKKTCRR,2.28
4,TDDSYSCHCLKGFTLNLDKKTCRR,2.02
5,TDDSYSCHCLKGFTLNTDKKTCRR,2.5
6,TDDSYSCHCLKGFTLNHDKKTCRR,2.42
7,TDDSYSCHCLKGFTLNWDKKTCRR,1.65
8,TDDSYSCHCLKGFTLNCDKKTCRR,3.48
9,TDDSYSCHCLKGFTLNMDKKTCRR,2.71
10,TDDSYSCHCLKGFTLNIDKKTCRR,2.01
11,TDDSYSCHCLKGFTHNPDKKTCRR,1.97
12,TDDSYSCHCLKGFTGNPDKKTCRR,1.74
13,TDDSYSCHCLKGFTYNPDKKTCRR,2.45
14,TDDSYSCHCLKGFTKNPDKKTCRR,2.64
15,TDDSYSCHCLKGFTENPDKKTCRR,2.58
16,TDDSYSCHCLKGFTRNPDKKTCRR,2.81
17,TDDSYSCHCLKGFTMNPDKKTCRR,2.38
18,TDDSYSCHCLKGFTQNPDKKTCRR,2.8
19,TDDSYSCHCLKGFTFNPDKKTCRR,2.86
20,TDDSYSCHCLKGFTNNPDKKTCRR,2.03
21,TDDSYSCHCLKGFTDNPDKKTCRR,2.14
22,TDDSYSCHCLKGFTANPDKKTCRR,2.45
23,TDDSYSCHCLKGFTPNPDKKTCRR,2.42
24,TDDSYSCHCLKGFTTNPDKKTCRR,2.02

row,Variant,protein stability index
1,TDDSYSCHCLKGFTWNPDKKTCRR,2.48
2,TDDSYSCHCLKGFTCNPDKKTCRR,2.9
3,TDDSYSCHCLKGFTSNPDKKTCRR,2.17
4,TDDSYSCHCLKGFTINPDKKTCRR,2.12
5,TDDSYSCHCLKGFTVNPDKKTCRR,2.55
6,TDDSYSCHCLSGFTLNPDKKTCRR,2.23
7,TDDSYSCHCLNGFTLNPDKKTCRR,2.15
8,TDDSYSCHCLQGFTLNPDKKTCRR,1.83
9,TDDSYSCHCLIGFTLNPDKKTCRR,2.08
10,TDDSYSCHCLDGFTLNPDKKTCRR,2.44
11,TDDSYSCHCLHGFTLNPDKKTCRR,2.49
12,TDDSYSCHCLMGFTLNPDKKTCRR,1.61
13,TDDSYSCHCLAGFTLNPDKKTCRR,2.27
14,TDDSYSCHCLWGFTLNPDKKTCRR,2.2
15,TDDSYSCHCLPGFTLNPDKKTCRR,2.36
16,TDDSYSCHCLVGFTLNPDKKTCRR,2.06
17,TDDSYSCHCLTGFTLNPDKKTCRR,1.96
18,TDDSYSCHCLYGFTLNPDKKTCRR,2.4
19,TDDSYSCHCLGGFTLNPDKKTCRR,2.78
20,TDDSYSCHCLRGFTLNPDKKTCRR,2.04
21,TDDSYSCHCLEGFTLNPDKKTCRR,2.87
22,TDDSYSCHCLLGFTLNPDKKTCRR,2.04
23,TDDSYSCHCLCGFTLNPDKKTCRR,2.51
24,TDDSYSCHCLFGFTLNPDKKTCRR,2.27

row,Variant,protein stability index
1,TDDSYSCHCWKGFTLNPDKKTCRR,2.98
2,TDDSYSCHCYKGFTLNPDKKTCRR,2.32
3,TDDSYSCHCAKGFTLNPDKKTCRR,2.48
4,TDDSYSCHCSKGFTLNPDKKTCRR,2.55
5,TDDSYSCHCFKGFTLNPDKKTCRR,2.46
6,TDDSYSCHCTKGFTLNPDKKTCRR,1.93
7,TDDSYSCHCGKGFTLNPDKKTCRR,2.91
8,TDDSYSCHCMKGFTLNPDKKTCRR,1.9
9,TDDSYSCHCVKGFTLNPDKKTCRR,1.72
10,TDDSYSCHCIKGFTLNPDKKTCRR,2.15
11,TDDSYSCHCNKGFTLNPDKKTCRR,3.04
12,TDDSYSCHCEKGFTLNPDKKTCRR,2.22
13,TDDSYSCHCDKGFTLNPDKKTCRR,3.55
14,TDDSYSCHCQKGFTLNPDKKTCRR,1.77
15,TDDSYSCHCHKGFTLNPDKKTCRR,1.86
16,TDDSYSCHCCKGFTLNPDKKTCRR,3.11
17,TDDSYSCHCPKGFTLNPDKKTCRR,3.56
18,TDDSYSCHCKKGFTLNPDKKTCRR,2.63
19,TDDSYSCHCRKGFTLNPDKKTCRR,1.65
20,TDDSYSCHCLKGFTLNPDLKTCRR,2.21
21,TDDSYSCHCLKGFTLNPDPKTCRR,2.19
22,TDDSYSCHCLKGFTLNPDQKTCRR,2.41
23,TDDSYSCHCLKGFTLNPDEKTCRR,2.3
24,TDDSYSCHCLKGFTLNPDHKTCRR,3.66

row,Variant,protein stability index
1,TDDSYSCHCLKGFTLNPDIKTCRR,2.01
2,TDDSYSCHCLKGFTLNPDSKTCRR,2.18
3,TDDSYSCHCLKGFTLNPDDKTCRR,2.37
4,TDDSYSCHCLKGFTLNPDNKTCRR,2.2
5,TDDSYSCHCLKGFTLNPDFKTCRR,1.61
6,TDDSYSCHCLKGFTLNPDMKTCRR,2.17
7,TDDSYSCHCLKGFTLNPDAKTCRR,2.46
8,TDDSYSCHCLKGFTLNPDTKTCRR,2.06
9,TDDSYSCHCLKGFTLNPDGKTCRR,1.62
10,TDDSYSCHCLKGFTLNPDCKTCRR,4.92
11,TDDSYSCHCLKGFTLNPDRKTCRR,2.12
12,TDDSYSCHCLKGFTLPPDKKTCRR,2.85
13,TDDSYSCHCLKGFTLFPDKKTCRR,1.8
14,TDDSYSCHCLKGFTLQPDKKTCRR,1.56
15,TDDSYSCHCLKGFTLMPDKKTCRR,2.65
16,TDDSYSCHCLKGFTLWPDKKTCRR,1.6
17,TDDSYSCHCLKGFTLVPDKKTCRR,2.56
18,TDDSYSCHCLKGFTLAPDKKTCRR,2.68
19,TDDSYSCHCLKGFTLHPDKKTCRR,2.3
20,TDDSYSCHCLKGFTLCPDKKTCRR,2.97
21,TDDSYSCHCLKGFTLEPDKKTCRR,2.06
22,TDDSYSCHCLKGFTLTPDKKTCRR,1.91
23,TDDSYSCHCLKGFTLKPDKKTCRR,2.33
24,TDDSYSCHCLKGFTLSPDKKTCRR,2.24

row,Variant,protein stability index
1,TDDSYSCHCLKGFTLDPDKKTCRR,2.17
2,TDDSYSCHCLKGFTLRPDKKTCRR,2.75
3,TDDSYSCHCLKGFTLYPDKKTCRR,2.4
4,TDDSYSCHCLKGFTLGPDKKTCRR,2.23
5,TDDSYSCHCLKGFTLIPDKKTCRR,2.89
6,TDDSYSCHCLKGFTLLPDKKTCRR,2.24
7,TDDSYSCHCLKGFLLNPDKKTCRR,2.01
8,TDDSYSCHCLKGFFLNPDKKTCRR,1.32
9,TDDSYSCHCLKGFCLNPDKKTCRR,2.31
10,TDDSYSCHCLKGFHLNPDKKTCRR,2.36
11,TDDSYSCHCLKGFMLNPDKKTCRR,1.64
12,TDDSYSCHCLKGFYLNPDKKTCRR,1.6
13,TDDSYSCHCLKGFDLNPDKKTCRR,2.14
14,TDDSYSCHCLKGFALNPDKKTCRR,2.69
15,TDDSYSCHCLKGFGLNPDKKTCRR,2.24
16,TDDSYSCHCLKGFPLNPDKKTCRR,1.79
17,TDDSYSCHCLKGFWLNPDKKTCRR,2.69
18,TDDSYSCHCLKGFSLNPDKKTCRR,2.13
19,TDDSYSCHCLKGFNLNPDKKTCRR,2.68
20,TDDSYSCHCLKGFILNPDKKTCRR,2.02
21,TDDSYSCHCLKGFVLNPDKKTCRR,3.45
22,TDDSYSCHCLKGFQLNPDKKTCRR,1.67
23,TDDSYSCHCLKGFELNPDKKTCRR,2.23
24,TDDSYSCHCLKGFRLNPDKKTCRR,2

row,Variant,protein stability index
1,TDDSYSCHCLKGFKLNPDKKTCRR,2.16
2,TDDSYSCHCLKGFTLNPCKKTCRR,2.57
3,TDDSYSCHCLKGFTLNPHKKTCRR,2.83
4,TDDSYSCHCLKGFTLNPQKKTCRR,1.97
5,TDDSYSCHCLKGFTLNPLKKTCRR,2.23
6,TDDSYSCHCLKGFTLNPWKKTCRR,2.17
7,TDDSYSCHCLKGFTLNPIKKTCRR,2.62
8,TDDSYSCHCLKGFTLNPGKKTCRR,2.36
9,TDDSYSCHCLKGFTLNPEKKTCRR,1.77
10,TDDSYSCHCLKGFTLNPYKKTCRR,1.95
11,TDDSYSCHCLKGFTLNPRKKTCRR,2.65
12,TDDSYSCHCLKGFTLNPSKKTCRR,2.27
13,TDDSYSCHCLKGFTLNPAKKTCRR,2.11
14,TDDSYSCHCLKGFTLNPFKKTCRR,2.01
15,TDDSYSCHCLKGFTLNPTKKTCRR,2.24
16,TDDSYSCHCLKGFTLNPNKKTCRR,2.38
17,TDDSYSCHCLKGFTLNPMKKTCRR,2.48
18,TDDSYSCHCLKGFTLNPKKKTCRR,2.86
19,TDDSYSCHCLKGFTLNPPKKTCRR,2.61
20,TDDSYSCHCLKGFTLNPVKKTCRR,2.42
